B1: CACACA_site2303 (dsDNA)
DNA 1: CATATTCCCCCCCACACACACACACCCATACATACC
DNA 2: GGTATGTATGGGTGTGTGTGTGTGGGGGGGAATATG
B2: CACACA_site367 (dsDNA)
DNA 1: CACCCACCCAGACACACACACACACCCCCACCCATA
DNA 2: TATGGGTGGGGGTGTGTGTGTGTGTCTGGGTGGGTG
B3: CACACA_site7149 (dsDNA)
DNA 1: CCCCCCCACGAACACACACACATACATACCACATAT
DNA 2: ATATGTGGTATGTATGTGTGTGTGTTCGTGGGGGGG
B4: CACACA_site3850 (dsDNA)
DNA 1: TAAAATAAAACAAACACACACACACCCCCACAAAAA
DNA 2: TTTTTGTGGGGGTGTGTGTGTGTTTGTTTTATTTTA
B5: CACACA_negctrl_site1631 (dsDNA)
DNA 1: TTTTAATTAAATACAAAAAAAAAAAAAAAAAAAAAA
DNA 2: TTTTTTTTTTTTTTTTTTTTTTGTATTTAATTAAAA
B6: CACACA_negctrl_site1460 (dsDNA)
DNA 1: TATTTTACATAAAAGAAAAAAAAAAAAAAAAAAAAA
DNA 2: TTTTTTTTTTTTTTTTTTTTTCTTTTATGTAAAATA
B7: CACACA_negctrl_site1067 (dsDNA)
DNA 1: ATTATTTTATGAGACATAAAAAAAAAAAAAAAAAAA
DNA 2: TTTTTTTTTTTTTTTTTTTATGTCTCATAAAATAAT
B8: CACACA_negctrl_site1242 (dsDNA)
DNA 1: TATTATTGTCTTTCAAAAAAAAAAAAAAAAAAAAAA
DNA 2: TTTTTTTTTTTTTTTTTTTTTTGAAAGACAATAATA
B9: CACACA_negctrl_site1662 (dsDNA)
DNA 1: TTATTCAGAAAAAAAAAAAAAAAAAAAAAAAAAAAA
DNA 2: TTTTTTTTTTTTTTTTTTTTTTTTTTTTCTGAATAA
B10: CACACA_negctrl_site1546 (dsDNA)
DNA 1: TCATATATTCAAAAATTTAAAGTTAATAAAACTTGA
DNA 2: TCAAGTTTTATTAACTTTAAATTTTTGAATATATGA
B11: CACACA_negctrl_site699 (dsDNA)
DNA 1: TTTTATTTCAATCCACAAGGGATAAAATAAAGTTTT
DNA 2: AAAACTTTATTTTATCCCTTGTGGATTGAAATAAAA
B12: CACACA_negctrl_site1450 (dsDNA)
DNA 1: ATATATTTTTAAAAAAATTAAGAATTTTACATCTCC
DNA 2: GGAGATGTAAAATTCTTAATTTTTTTAAAAATATAT
B13: CACACA_negctrl_site737 (dsDNA)
DNA 1: TTTTTAATTCAAAAAATAATATATTATATTTCAAAT
DNA 2: ATTTGAAATATAATATATTATTTTTTGAATTAAAAA
B14: CACACA_negctrl_site1493 (dsDNA)
DNA 1: TGTTCTTATTTTATAAGCATATAATTAATCATAATG
DNA 2: CATTATGATTAATTATATGCTTATAAAATAAGAACA
B15: CACACA_negctrl_site338 (dsDNA)
DNA 1: TCGTCTCAATAATTATAATAAAAAAATTCCTAAGTC
DNA 2: GACTTAGGAATTTTTTTATTATAATTATTGAGACGA
B16: CACACA_negctrl_site1475 (dsDNA)
DNA 1: AATGATTTTCAATCGAAATGAAACTTAGAAGATATA
DNA 2: TATATCTTCTAAGTTTCATTTCGATTGAAAATCATT
B17: CACACA_negctrl_site1062 (dsDNA)
DNA 1: TTATATGCATCCAAAAAGGAATGTTTTTAGAGAATC
DNA 2: GATTCTCTAAAAACATTCCTTTTTGGATGCATATAA
B18: CACACA_negctrl_site982 (dsDNA)
DNA 1: ATTTTTTTTTTTTTTTTTTTTTTTTTTGAATTCACA
DNA 2: TGTGAATTCAAAAAAAAAAAAAAAAAAAAAAAAAAT
B19: CACACA_negctrl_site1682 (dsDNA)
DNA 1: TGTTATATCAATAATATATAATAATACCCTTCTTTT
DNA 2: AAAAGAAGGGTATTATTATATATTATTGATATAACA
B20: CACACA_negctrl_site1157 (dsDNA)
DNA 1: TTTTTGTATTCTACCTTAACAATCTTAAAGATTTTT
DNA 2: AAAAATCTTTAAGATTGTTAAGGTAGAATACAAAAA
B21: CACACA_negctrl_site1656 (dsDNA)
DNA 1: TTTTGATCTGAAGGAACCTAAAAAGGGAAGAGAAAA
DNA 2: TTTTCTCTTCCCTTTTTAGGTTCCTTCAGATCAAAA
B22: CACACA_negctrl_site996 (dsDNA)
DNA 1: GAAAAAAAAAAAAAAAAAAAAAGGAAAAAAGTGAAA
DNA 2: TTTCACTTTTTTCCTTTTTTTTTTTTTTTTTTTTTC
B23: CACACA_negctrl_site908 (dsDNA)
DNA 1: TTATGGATGGACAATAATAAAATTTTTACTTTTATT
DNA 2: AATAAAAGTAAAAATTTTATTATTGTCCATCCATAA
B24: CACACA_negctrl_site1031 (dsDNA)
DNA 1: ATTATTTGAACAACAAAAAAAAAGAAAAGAAAAGAA
DNA 2: TTCTTTTCTTTTCTTTTTTTTTGTTGTTCAAATAAT
B25: CACACA_negctrl_site847 (dsDNA)
DNA 1: TTTTAAAATAAAAAAATAAAAAAAGGGGAAAAAAAA
DNA 2: TTTTTTTTCCCCTTTTTTTATTTTTTTATTTTAAAA
B26: CACACA_negctrl_site687 (dsDNA)
DNA 1: GTTAAACATCTTCTGTGATATGTTAGAATATTATTT
DNA 2: AAATAATATTCTAACATATCACAGAAGATGTTTAAC
B27: CACACA_negctrl_site1412 (dsDNA)
DNA 1: TATATTTGGTTTCATTCATTTTTATAGAAATCTCAA
DNA 2: TTGAGATTTCTATAAAAATGAATGAAACCAAATATA
B28: CACACA_negctrl_site97 (dsDNA)
DNA 1: AATAAAGGAAATAAATAATTTATTTTGTAAAATATG
DNA 2: CATATTTTACAAAATAAATTATTTATTTCCTTTATT
B29: CACACA_negctrl_site1417 (dsDNA)
DNA 1: AAAAATATTATGATGTTTATTAGAAAGGAAAAAACT
DNA 2: AGTTTTTTCCTTTCTAATAAACATCATAATATTTTT
B30: CACACA_negctrl_site377 (dsDNA)
DNA 1: GTATAACAACTGATAAAAGAAAAAAAATTTATTATT
DNA 2: AATAATAAATTTTTTTTCTTTTATCAGTTGTTATAC
B31: CACACA_negctrl_site1268 (dsDNA)
DNA 1: ATATTTTTATGATGTATCCAAGAAATGGAACTATAT
DNA 2: ATATAGTTCCATTTCTTGGATACATCATAAAAATAT
B32: CACACA_negctrl_site949 (dsDNA)
DNA 1: TATATATGGGTACTAATTCCTTTAATTTCTTTAATT
DNA 2: AATTAAAGAAATTAAAGGAATTAGTACCCATATATA
B33: CACACA_negctrl_site94 (dsDNA)
DNA 1: TTTTTTTTTTTTTTTTTTTTTTTCTACCTATTTATT
DNA 2: AATAAATAGGTAGAAAAAAAAAAAAAAAAAAAAAAA
B34: CACACA_negctrl_site1708 (dsDNA)
DNA 1: AAAACTTTTTTAACAGAAAAATAGGGATACAATATA
DNA 2: TATATTGTATCCCTATTTTTCTGTTAAAAAAGTTTT
B35: CACACA_negctrl_site1330 (dsDNA)
DNA 1: TAATAAATTCAAAACATAAAAAGGAAAAAAAAAAAA
DNA 2: TTTTTTTTTTTTCCTTTTTATGTTTTGAATTTATTA
B36: CACACA_negctrl_site1634 (dsDNA)
DNA 1: TTGGTAAATATATTTTGAATATAAGAAATATAGACG
DNA 2: CGTCTATATTTCTTATATTCAAAATATATTTACCAA
B37: CACACA_negctrl_site1518 (dsDNA)
DNA 1: AAGGGAAAATAATAAAAGAAAAAGAAAAAAAAAAAA
DNA 2: TTTTTTTTTTTTCTTTTTCTTTTATTATTTTCCCTT
B38: CACACA_negctrl_site1356 (dsDNA)
DNA 1: TGTTTAACACATGTTTCAAACAAAAAAAAAAAGACA
DNA 2: TGTCTTTTTTTTTTTGTTTGAAACATGTGTTAAACA
B39: CACACA_negctrl_site43 (dsDNA)
DNA 1: TTCTTAATTCATACCATCAAAACATTTATTCATATC
DNA 2: GATATGAATAAATGTTTTGATGGTATGAATTAAGAA
B40: CACACA_negctrl_site1516 (dsDNA)
DNA 1: TAACCAAAAAAAAATATTTAAAATAAATATATATAT
DNA 2: ATATATATATTTATTTTAAATATTTTTTTTTGGTTA
B41: CACACA_negctrl_site1820 (dsDNA)
DNA 1: AGAATTGTTGTTAAAGAATTCTTTTTTATCCTTCCC
DNA 2: GGGAAGGATAAAAAAGAATTCTTTAACAACAATTCT

Key:
AP2-LT D1 = molecular target: T1, AP2-LT D1 (Plasmodium falciparum, UniProt Q8IAM1 2520-2577); test: gcPBM; about 25 ug protein; PBS, 1% milk, 0.2 mg/ml BSA, salmon testes DNA, 0.03% Triton X-100; details: tags: N-terminal GST (pGEX-4T-1), kept; label: surface-attached array probe
T1 sequence: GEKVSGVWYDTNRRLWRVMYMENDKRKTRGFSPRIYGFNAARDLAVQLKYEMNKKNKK

PF3D7_0420300 D1 = molecular target: T2, PF3D7_0420300 D1 (Plasmodium falciparum, UniProt Q8I1N6 1956-2015); test: as above; details: tags: N-terminal GST (pGEX-4T-1), kept; label: surface-attached array probe
T2 sequence: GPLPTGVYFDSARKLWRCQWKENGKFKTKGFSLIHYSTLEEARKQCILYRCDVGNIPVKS

| Binder | binding signal (AP2-LT D1) | binding signal (PF3D7_0420300 D1) |
| --- | --- | --- |
| B1 | 10.8 ln median PBM intensity, better of two orientations | 11 ln median PBM intensity, better of two orientations |
| B2 | 11 ln median PBM intensity, better of two orientations | 10.8 ln median PBM intensity, better of two orientations |
| B3 | 10.7 ln median PBM intensity, better of two orientations | 10.7 ln median PBM intensity, better of two orientations |
| B4 | 10.7 ln median PBM intensity, better of two orientations | 10.7 ln median PBM intensity, better of two orientations |
| B5 | 8.41 ln median PBM intensity, better of two orientations | 8.08 ln median PBM intensity, better of two orientations |
| B6 | 8.54 ln median PBM intensity, better of two orientations | 8.27 ln median PBM intensity, better of two orientations |
| B7 | 8.39 ln median PBM intensity, better of two orientations | 8.39 ln median PBM intensity, better of two orientations |
| B8 | 8.23 ln median PBM intensity, better of two orientations | 8.46 ln median PBM intensity, better of two orientations |
| B9 | 8.18 ln median PBM intensity, better of two orientations | 8.5 ln median PBM intensity, better of two orientations |
| B10 | 8.35 ln median PBM intensity, better of two orientations | 8.61 ln median PBM intensity, better of two orientations |
| B11 | 8.46 ln median PBM intensity, better of two orientations | 8.71 ln median PBM intensity, better of two orientations |
| B12 | 8.56 ln median PBM intensity, better of two orientations | 8.78 ln median PBM intensity, better of two orientations |
| B13 | 8.36 ln median PBM intensity, better of two orientations | 8.79 ln median PBM intensity, better of two orientations |
| B14 | 8.77 ln median PBM intensity, better of two orientations | – |
| B15 | 8.78 ln median PBM intensity, better of two orientations | – |
| B16 | 8.78 ln median PBM intensity, better of two orientations | – |
| B17 | 8.79 ln median PBM intensity, better of two orientations | – |
| B18 | 8.8 ln median PBM intensity, better of two orientations | – |
| B19 | 8.8 ln median PBM intensity, better of two orientations | – |
| B20 | 8.8 ln median PBM intensity, better of two orientations | – |
| B21 | 8.82 ln median PBM intensity, better of two orientations | – |

| Binder | binding signal (AP2-LT D1) | binding signal (PF3D7_0420300 D1) |
| --- | --- | --- |
| B22 | 8.82 ln median PBM intensity, better of two orientations | – |
| B23 | 8.82 ln median PBM intensity, better of two orientations | – |
| B24 | 8.83 ln median PBM intensity, better of two orientations | – |
| B25 | 8.83 ln median PBM intensity, better of two orientations | – |
| B26 | 8.83 ln median PBM intensity, better of two orientations | – |
| B27 | 8.84 ln median PBM intensity, better of two orientations | – |
| B28 | 8.84 ln median PBM intensity, better of two orientations | – |
| B29 | 8.85 ln median PBM intensity, better of two orientations | – |
| B30 | 8.85 ln median PBM intensity, better of two orientations | – |
| B31 | 8.85 ln median PBM intensity, better of two orientations | – |
| B32 | 8.85 ln median PBM intensity, better of two orientations | – |
| B33 | 8.86 ln median PBM intensity, better of two orientations | – |
| B34 | 8.86 ln median PBM intensity, better of two orientations | – |
| B35 | 8.86 ln median PBM intensity, better of two orientations | – |
| B36 | 8.87 ln median PBM intensity, better of two orientations | – |
| B37 | 8.87 ln median PBM intensity, better of two orientations | – |
| B38 | 8.88 ln median PBM intensity, better of two orientations | – |
| B39 | 8.88 ln median PBM intensity, better of two orientations | – |
| B40 | 8.88 ln median PBM intensity, better of two orientations | – |
| B41 | 8.88 ln median PBM intensity, better of two orientations | – |
